Results taken from patent publication US20250264483A1, “IDENTIFICATION OF PROTHROMBOTIC CONDITIONS” (Sydney Local Health District, priority 2020, published 2025).

System: healthy donor platelets
Experiment: Procoagulant platelet flow cytometry assay, healthy donor whole blood with VITT patient plasma
Format: cell-based, human
Details: exogenous purified human PF4 25 μg/mL, VITT positive (n=6) and negative (n=8) cases (FIG. 12A)

B1: PF4: native human PF4 purified from expired platelet concentrate (protein, UniProt P02776 32-101, looked up)
Platelet factor 4: EAEEDGDLQCLCVKTTSQVRPRHITSLEVIKAGPHCPTAQLIATLKNGRKICLDLQAPLYKKIIKKLLES
effect on flow cytometry assay results: did not alter the results
